From PMC3132758

Tests used:
[1] = biological target: CdvC from Metallosphaera sedula (Vps4-like AAA ATPase) (Metallosphaera sedula); assay: SEC; CdvC alone at >75 µM (180 µM) on Superose 6; single high molecular weight peak
[2] = biological target: CdvB from Metallosphaera sedula (ESCRT-III-like), full length (Metallosphaera sedula); assay: SEC; CdvB and CdvC mixed, 20 µM each, on Superose 6; fractions analysed by SDS-PAGE; void volume peak holds both

Substance	stoichiometry N [1]	stoichiometry N [2]
CdvC from Metallosphaera sedula (Vps4-like AAA ATPase) (enzyme)	12	–
CdvC from Metallosphaera sedula (Vps4-like AAA ATPase)	–	1
